Experimental data from US20250277039A1 (PURDUE RESEARCH FOUNDATION, published 2025).

Legend:
[1] = biological target: T1, His-tagged mouse PD-L1 protein (mouse, UniProt Q9EP73 19-238, limits assumed); test: plate assay: His-tagged PD-L1 on Ni-NTA 96-well plate, PD-1-hFc, HRP anti-human IgG Fc secondary, OD450 given as fold ratio
T1 construct: also called mPD-L1-His; mPD-L1; not shown: His tag
Experimental: (§1) Histidine (His)-tagged canine or mPD-L1 protein was immobilized on the nickel-nitriloacetic acid (Ni-NTA) 96-well plate and horseradish peroxidase (HRP)-conjugated anti-human IgG Fc-specific secondary with mPD-1-hFc or cPD-1-hFc protein was added. OD450 was measured to quantify the amount of bound PD-1 protein.

[2] = biological target: T1, His-tagged mouse PD-L1 protein; test: plate assay: His-tagged PD-L1 on Ni-NTA 96-well plate, antibody, HRP anti-canine IgG secondary, OD450
Experimental: 12C and 3C. with human PD-L1 (hPD-L1), mPD-L1, and cPD-L1 proteins. His-tagged human PD-L1, mPD-L1, or cPD-L1 protein was immobilized on the Ni-NTA 96-well plate, and anti-cPD-L1 Abs. 12C or 3C. with HRP-conjugated anti-canine IgG-specific secondary was added. OD450 was measured to quantify the amount of bound PD-L1 antibodies (Ab=antibody).

[3] = biological target: T2, canine PD-L1 (Flag-cPD-L1) expressed on BT549 cells (canine, UniProt E2RKZ5 19-289); test: cPD-1/cPD-L1 blockade assay on BT549^cPD-L1 cells; blocked ligand cPD-1-hFc; green fluorescence by IncuCyte S3
T2 construct: Flag-tagged (pGIPZ-shPD-L1/Flag-cPD-L1); Endogenous human PD-L1 was knocked down in the BT549 cells; also called membrane-localized cPD-L1 protein; BT549^cPD-L1 cells
T2 sequence: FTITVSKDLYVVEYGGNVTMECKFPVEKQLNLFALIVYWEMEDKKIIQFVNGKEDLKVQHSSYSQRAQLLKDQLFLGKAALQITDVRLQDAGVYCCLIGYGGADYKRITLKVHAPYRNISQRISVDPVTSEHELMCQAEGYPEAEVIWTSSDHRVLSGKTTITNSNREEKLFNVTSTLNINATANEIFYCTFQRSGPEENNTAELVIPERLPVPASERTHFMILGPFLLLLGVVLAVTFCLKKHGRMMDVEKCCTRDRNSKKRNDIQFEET
Experimental: (§2) To measure PD-1 protein on the cells. […] cells were seeded per well in 96-well plates. The plates were then incubated with cIgG control (Rockland Immunochemicals. Pottstown, PA). 12C10E4 antibody or cPD-L1 A12C10E4 antibody, cPD-1-hFc protein (human Fc protein conjugated: Sino Biological US. Wayne. PA), and/or anti-human Alexa Fluor 488 dye conjugate (ThermoFisher Scientific. Waltham. MA). Every 3 hours green fluorescent signal was measured and quantified by IncuCyte S3 (Sartorius. Goettingen. Germany) (FIG. 5B). The image analysis was performed according to the manufacturer's protocol.

[4] = biological target: T3, His-tagged canine PD-L1 protein (6X His tagged extracellular domain of cPD-L1) (canine, UniProt E2RKZ5 19-236); test: Octet BLI (RED384): His-tagged cPD-L1 loaded on an NTA biosensor at 200 nM, antibody at 50, 100, 200 nmol/L
T3 construct: also called cPD-L1-His; canine PD-L1-His
T3 sequence: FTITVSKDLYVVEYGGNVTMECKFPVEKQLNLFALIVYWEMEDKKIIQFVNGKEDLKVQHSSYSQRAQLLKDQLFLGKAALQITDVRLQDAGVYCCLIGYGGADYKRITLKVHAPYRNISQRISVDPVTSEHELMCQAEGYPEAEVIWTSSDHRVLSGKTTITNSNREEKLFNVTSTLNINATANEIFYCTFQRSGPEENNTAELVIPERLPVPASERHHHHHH
Experimental: The binding affinity (KD) of the chimeric cPD-L1/cPD-L1 antibody (12C10E4) for canine PD-L1 was determined by Octet Biolayer interferometry (BLI) using the Octet RED384 system (Sartorius. Bohemia. NY). Briefly. His-tagged cPD-L1 protein was loaded on the Octet NTA biosensor at a concentration of 200 nM. The association step was performed by submerging the sensors in three concentrations of the chimeric cPD-L1/cPD-L1 antibody (12C10E4) (50, 100, 200 nmol/L) in the kinetic buffer. Dissociation was performed and monitored in fresh kinetic buffer. Data were analyzed with Octet Analysis HT software (Sartorius. Bohemia. NY), […].

[5] = biological target: T4, mPD-L1 on MB49 cells (Mus musculus, UniProt Q9EP73); test: flow cytometry of MB49 parental cells, which stain for mPD-L1 in the left panel
T4 construct: endogenous, membrane-located, on MB49 parental mouse bladder cancer cells; also called endogenous mouse PD-L1 on MB49 parental cells
T4 sequence (Q9EP73 19-290 limits assumed): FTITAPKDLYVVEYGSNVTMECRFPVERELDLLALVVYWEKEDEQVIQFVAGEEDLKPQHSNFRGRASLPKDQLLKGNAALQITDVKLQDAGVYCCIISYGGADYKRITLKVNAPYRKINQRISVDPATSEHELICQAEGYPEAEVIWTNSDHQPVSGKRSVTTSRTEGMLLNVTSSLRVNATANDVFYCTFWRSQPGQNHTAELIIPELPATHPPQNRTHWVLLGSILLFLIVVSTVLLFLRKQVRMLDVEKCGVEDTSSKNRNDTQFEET
Experimental: (§3) For flow cytometry analysis, MB49 or BT549 cells were washed twice with ice-cold cell staining buffer (Biolegend, San Diego, CA) and stained with cIgG control, or cPD-L1 12C10E4 cIgG or cPD-L1 A12C10E4 cIgG for 1 hour at 4° C. After three washes with staining buffer, cell samples were stained with Alexa Fluor 488-conjugated anti-canine IgG specific secondary antibody for 30 minutes at 4° C. Cell samples were loaded on BD LSRFortessa (BD, Franklin Lakes, NJ) for analysis. Data analysis was performed on FlowJo v9 software (BD). Every hour, green fluorescent signal was measured and quantified by IncuCyte S3 (Sartorius. Goettingen, Germany). The Image analysis was performed according to the manufacturer's protocol.

[6] = biological target: T3, His-tagged canine PD-L1 protein (6X His …); test: cell-free blockade assay: canine PD-L1-His on Ni-NTA plate; blocked ligand PD-1-Fc (cPD-1-hFc), HRP anti-human IgG Fc secondary, OD450
Experimental: For the […] assays. Pierce Ni-NTA coated 96-well plates (ThermoFisher Scientific. Waltham. MA) were coated with canine PD-L1-His proteins and PD-1-Fc proteins (human Fc-protein conjugated) (SinoBiological US. Wayne. PA), and anti-human IgG Fc specific horseradish peroxidase (HRP)-conjugated secondary antibodies (SouthernBiotech. Birmingham. AL) were added, followed by the addition of anti-canine PD-L1, 12C10E4 or cPD-L1 A12C10E4 antibodies. The bound PD-1-Fc protein was quantified by measuring OD450 value with a Synergy LX multi-mode reader.

[7] = biological target: T2, canine PD-L1 (Flag-cPD-L1) expressed on …; test: blockade of cPD-1-hFc binding to cPD-L1, bound cPD-1 quantified by green fluorescence on IncuCyte S3 (FIG. 5E)
Experimental: as §2

[8] = biological target: T5, cPD-L1 on MB49^cPD-L1 cells; test: flow cytometry of MB49^cPD-L1 cells
T5 construct: also called canine PD-L1 (Flag-cPD-L1) on mouse PD-L1 knockout MB49 cells
T5 chain: T2 sequence
Experimental: as §3

[9] = biological target: T3, His-tagged canine PD-L1 protein (6X His …); test: cell-free ELISA-based binding assay on His-tagged extracellular domain of cPD-L1, bound antibody as OD450
[10] = biological target: T1, His-tagged mouse PD-L1 protein; test: blocking plate assay: mPD-L1-His on Ni-NTA plate, cPD-1-hFc or mPD-1-hFc, HRP anti-human IgG Fc secondary; 12C concentration not given
Experimental: as §1

T1 sequence (Q9EP73 19-238 limits assumed): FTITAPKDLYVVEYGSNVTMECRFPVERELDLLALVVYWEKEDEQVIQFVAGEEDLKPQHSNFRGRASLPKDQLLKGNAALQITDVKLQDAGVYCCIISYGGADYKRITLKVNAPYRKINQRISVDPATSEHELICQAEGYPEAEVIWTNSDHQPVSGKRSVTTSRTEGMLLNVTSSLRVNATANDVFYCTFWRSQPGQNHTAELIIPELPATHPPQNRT

B1: mPD-1-hFc protein (Fc fusion, mouse, UniProt Q02242 25-167, looked up)
chain: LEVPNGPWRSLTFYPAWLTVSEGANATFTCSLSNWSEDLMLNWNRLSPSNQTEKQAAFCNGLSQPVQDARFQIIQLPNRHDFHMNILDTRRNDSGIYLCGAISLHPKAKIEESPGAELVVTERILETSTRYPSPSPKPEGRFQ
notes: also called mouse PD-1; not shown: human Fc
B1: binds [1].

B2: cPD-L1 12C10E4 chimeric antibody (mouse variable domains, canine IgG2 / canine kappa constant domains) (antibody)
heavy: QVQLKQSGPGLVQPSQSLSITCTISGFSLTSFGVHWVRQSPGKGLEWLGVIWSGGSTDYNAAFTSRLSINKDNSKSQVFFKMNSLQADDTAIYYCARGGGPDWYFDVWGTGTTVTVSSASTTAPSVFPLAPSCGSTSGSTVALACLVSGYFPEPVTVSWNSGSLTSGVHTFPSVLQSSGLYSLSSMVTVPSSRWPSETFTCNVAHPASKTKVDKPVPKRENGRVPRPPDCPKCPAPEMLGGPSVFIFPPKPKDTLLIARTPEVTCVVVDLDPEDPEVQISWFVDGKQMQTAKTQPREEQFNGTYRVVSVLPIGHQDWLKGKQFTCKVNNKALPSPIERTISKARGQAHQPSVYVLPPSREELSKNTVSLTCLIKDFFPPDIDVEWQSNGQQEPESKYRTTPPQLDEDGSYFLYSKLSVDKSRWQRGDTFICAVMHEALHNHYTQKSLSHSPGK
light: DIVLTQSPASLAVSLGQRATISCRASESVEYYGTSLMQWYQQKPGQPPKLLIFAASNVKSGVPARFSGSGSGTDFSLNIHPVEEDDIAMYFCQQSGKVPHTFGGGTKLEIKRSMEIKRTDAQPAVYLFQPSPDQLHTGSASVVCLLNSFYPKDINVKWKVDGVIQDTGIQESVTEQDKDSTYSLSSTLTMSSTEYLSHELYSCEITHKSLPSTLIKSFQRSECQRVD
notes: Expressed in ExpiCHO-S cells from pTRIOZ-cIgG2-12C10E4; also called 12C chimeric antibody; mAb 12C
With B2 the binding result [2] was “no binding”, the “IC50 (read off the curve)” value [3] was roughly 0.06 µg/mL and the Kd [4] was 8.6 nM. The binding result [5] was “no binding”, the “IC50 (read off the curve)” value [6] was roughly 0.05 µg/mL and the EC50 [7] was 0.419 µg/mL. For the same binder, the binding result [8] was “binds” and the “EC50 (read off the curve)” value [9] was roughly 0.2 µg/mL.

B3: cPD-L1 A12C10E4 chimeric antibody (antibody)
heavy: B2 heavy
light: DIVLTQSPASLAVSLGQRATISCRASESVEYYGTSLMQWYQQKPGQPPKLLIFAASNVKSGVPARFSGSGSGTDFSLNIHPVEEDDIAMYFCQQSGKVPHTFGGGTKLEIKRSMADAQPAVYLFQPSPDQLHTGSASVVCLLNSFYPKDINVKWKVDGVIQDTGIQESVTEQDKDSTYSLSSTLTMSSTEYLSHELYSCEITHKSLPSTLIKSFQRSECQRVD
notes: also called mAb A12C; cPD-L1 A12C10E4 cIgG
With B3 the “IC50 (read off the curve)” value [6] was roughly 0.05 µg/mL and the “EC50 (read off the curve)” value [9] was roughly 0.2 µg/mL.

B4: cPD-L1 3C chimeric antibody clone (3C8D3 variable domains, canine constant domains) (antibody, V domains shown)
VH: EVQLQQSGPELVKPGASVKMSCKASGYTFTDYVLHWVRQTNGKSLEWIGEINPSNGDTYYNQKFKGKATLTVDTSSSTAYMQLTTLTSEDSAVYYCARSDYSNYVGFAYWGQGTLVTVSA
VL: DIVMTQSHKFMSTSVGDRVSITCKVSQDVGTAVAWYQQKPGQCPKRLIYWTSTRHTGVPDRFTGSGSGTDFTLTISNVQSEDLVDYFCQQYSSYPLTFGGGTKLELKR
notes: also called cPD-L1 3C8D3
B4: no binding [2].

B5: murine monoclonal antibody cPD-L1 12C10E4 from the hybridoma (antibody, mouse IgG1, V domains shown)
VH: QVQLKQSGPGLVQPSQSLSITCTISGFSLTSFGVHWVRQSPGKGLEWLGVIWSGGSTDYNAAFTSRLSINKDNSKSQVFFKMNSLQADDTAIYYCARGGGPDWYFDVWGTGTTVTVSS
VL: DIVLTQSPASLAVSLGQRATISCRASESVEYYGTSLMQWYQQKPGQPPKLLIFAASNVKSGVPARFSGSGSGTDFSLNIHPVEEDDIAMYFCQQSGKVPHTFGGGTKLEIK
notes: Hybridoma antibody from A/J mice immunized with the cPD-L1 extracellular domain-human Fc; also called mAb 12C; murine 12C antibody
B5: no binding [10].
